Drawing on paper doi:10.1101/2020.01.21.912428, this text covers mean fluorescence intensity in the tubulin-rhodamine channel for one substance.

Experiment [1] deals with dTBCE-GFP expressed in Drosophila embryos (Drosophila melanogaster) (UniProt A1Z6J5). Nature of the experiment: fluorescence microscopy of beads.
Experiment [2] deals with dTBCE^mutCG-GFP expressed in Drosophila embryos (Drosophila melanogaster) (UniProt A1Z6J5). Put plainly: fluorescence microscopy of beads.

Turning to “bovine brain tubulin supplemented with 25 % of tubulin-rhodamin (from UniProt Q6B856 1-445) (complex)”, the figures for the mean fluorescence intensity in the tubulin-rhodamine channel in experiment [1] and in experiment [2] were 25.9 a.u and 4.7 a.u, respectively.
